According to the Human Domainome abundance scans (Beltran et al. 2025):
± gives the uncertainty stated by the source.

B1: Chromodomain-helicase-DNA-binding protein 4, residues 365 to 417; numbered along this chain, Q14839 (parent)
chain: YETDHQDYCEVCQQGGEIILCDTCPRAYHMVCLDPDMEKAPEGKWSCPHCEKE

Variants of: B1
Test: abundance fitness (aPCA) (normalised: wild type 0, dead -1); higher = more abundant; growth selection in yeast, the domain comes from the species named
Conditions: Homo sapiens

E38K and E38C are within error of each other in abundance fitness: -0.244 ± 0.18 for the first, -0.028 ± 0.11 for the second.

E38I and E38R are within error of each other in abundance fitness: -0.106 ± 0.18 for the first, -0.029 ± 0.1 for the second.

Compared with E38T, E38G is higher in abundance fitness: -0.657 ± 0.22 for the first, -0.056 ± 0.082 for the second.

E38H and E38N are within error of each other in abundance fitness: -0.079 ± 0.26 for the first, -0.183 ± 0.26 for the second.

E38V and E38S are within error of each other in abundance fitness: -0.063 ± 0.11 for the first, -0.266 ± 0.11 for the second.

E38A and E38W are within error of each other in abundance fitness: -0.261 ± 0.11 for the first, -0.281 ± 0.14 for the second.

E38F and E38P are within error of each other in abundance fitness: 0.142 ± 0.18 for the first, -0.143 ± 0.13 for the second.

Compared with E38D, E38M is lower in abundance fitness: -0.074 ± 0.15 for the first, -0.784 ± 0.21 for the second.

E38L and E38Q are within error of each other in abundance fitness: -0.197 ± 0.11 for the first, -0.19 ± 0.2 for the second.

E38Y and M37A are within error of each other in abundance fitness: -0.093 ± 0.25 for the first, -0.067 ± 0.11 for the second.

M37T and M37Q are within error of each other in abundance fitness: -0.329 ± 0.12 for the first, -0.103 ± 0.15 for the second.

M37C and M37W are within error of each other in abundance fitness: 0.34 ± 0.18 for the first, 0.079 ± 0.12 for the second.

Going from M37L to M37E, the abundance fitness falls from -0.059 ± 0.11 to -0.392 ± 0.14.

M37H and M37R are within error of each other in abundance fitness: -0.217 ± 0.22 for the first, 0.054 ± 0.095 for the second.

M37V and M37P are within error of each other in abundance fitness: 0.076 ± 0.094 for the first, 0.026 ± 0.11 for the second.

Going from M37S to M37G, the abundance fitness falls from 0.079 ± 0.12 to -0.199 ± 0.1.

Going from M37F to M37K, the abundance fitness falls from 0.24 ± 0.15 to -0.242 ± 0.24.

Compared with M37D, M37I is higher in abundance fitness: -0.451 ± 0.23 for the first, -0.023 ± 0.19 for the second.

M37N and P48H are within error of each other in abundance fitness: 0.141 ± 0.23 for the first, -0.057 ± 0.19 for the second.

P48T and P48K are within error of each other in abundance fitness: -0.132 ± 0.12 for the first, -0.29 ± 0.18 for the second.

P48E and P48V are within error of each other in abundance fitness: -0.151 ± 0.12 for the first, -0.04 ± 0.11 for the second.

P48I and P48L are within error of each other in abundance fitness: -0.308 ± 0.27 for the first, -0.126 ± 0.1 for the second.

P48Q and P48R are within error of each other in abundance fitness: -0.133 ± 0.15 for the first, 0.063 ± 0.1 for the second.

P48A and P48M are within error of each other in abundance fitness: -0.002 ± 0.11 for the first, 0.07 ± 0.12 for the second.

Going from P48N to P48C, the abundance fitness rises from -0.678 ± 0.3 to -0.001 ± 0.19.

P48F and P48S are within error of each other in abundance fitness: -0.165 ± 0.22 for the first, 0.058 ± 0.1 for the second.

Going from P48W to P48D, the abundance fitness rises from -0.622 ± 0.14 to -0.16 ± 0.19.

P48Y and P48G are within error of each other in abundance fitness: -0.101 ± 0.16 for the first, -0.068 ± 0.098 for the second.

P41T and P41F are within error of each other in abundance fitness: -0.105 ± 0.16 for the first, 0.034 ± 0.17 for the second.

P41E and P41A are within error of each other in abundance fitness: 0.07 ± 0.14 for the first, 0.117 ± 0.12 for the second.

Compared with P41G, P41H is lower in abundance fitness: 0.151 ± 0.1 for the first, -0.378 ± 0.2 for the second.

P41D and P41L are within error of each other in abundance fitness: 0.022 ± 0.17 for the first, -0.092 ± 0.1 for the second.

P41K and P41R are within error of each other in abundance fitness: -0.015 ± 0.18 for the first, 0.123 ± 0.094 for the second.

P41S and P41Y are within error of each other in abundance fitness: -0.046 ± 0.1 for the first, 0.022 ± 0.19 for the second.

Compared with P41C, P41N is higher in abundance fitness: -0.212 ± 0.14 for the first, 0.435 ± 0.23 for the second.

P41V and P41I are within error of each other in abundance fitness: -0.218 ± 0.12 for the first, 0.055 ± 0.17 for the second.

P41Q and P41M are within error of each other in abundance fitness: -0.109 ± 0.18 for the first, -0.06 ± 0.16 for the second.

P35C and P35M are within error of each other in abundance fitness: -0.1 ± 0.15 for the first, -0.054 ± 0.16 for the second.

P35T and P35R are within error of each other in abundance fitness: 0.054 ± 0.14 for the first, 0.029 ± 0.1 for the second.

P35H and P35E are within error of each other in abundance fitness: -0.001 ± 0.33 for the first, -0.345 ± 0.15 for the second.

P35S and P35Y are within error of each other in abundance fitness: 0.125 ± 0.11 for the first, 0.272 ± 0.26 for the second.

P35Q and P35V are within error of each other in abundance fitness: -0.284 ± 0.22 for the first, -0.04 ± 0.098 for the second.

P35N and P35A are within error of each other in abundance fitness: -0.023 ± 0.26 for the first, -0.016 ± 0.097 for the second.

First: P35G
Second: P35L
The abundance fitness of the first is higher: 0.038 ± 0.089 for the first, -0.191 ± 0.1 for the second.

P35W and P35K are within error of each other in abundance fitness: -0.236 ± 0.13 for the first, -0.374 ± 0.18 for the second.

Going from S46K to S46C, the abundance fitness rises from -0.65 ± 0.18 to 0.031 ± 0.16.

Going from S46G to S46N, the abundance fitness rises from -0.23 ± 0.086 to 0.039 ± 0.17.

S46Q and S46L are within error of each other in abundance fitness: 0.054 ± 0.14 for the first, -0.168 ± 0.1 for the second.

S46W and S46H are within error of each other in abundance fitness: 0.014 ± 0.12 for the first, 0.068 ± 0.3 for the second.

S46P and S46E are within error of each other in abundance fitness: -0.258 ± 0.14 for the first, -0.039 ± 0.13 for the second.

S46T and S46R are within error of each other in abundance fitness: -0.07 ± 0.15 for the first, -0.137 ± 0.092 for the second.

S46D and S46A are within error of each other in abundance fitness: -0.168 ± 0.14 for the first, -0.18 ± 0.11 for the second.

S46M and S46Y are within error of each other in abundance fitness: -0.197 ± 0.15 for the first, -0.003 ± 0.16 for the second.

First: S46F
Second: S46I
The abundance fitness of the first is higher: 0.125 ± 0.15 for the first, -0.489 ± 0.23 for the second.

E42L and E42S are within error of each other in abundance fitness: -0.087 ± 0.11 for the first, -0.129 ± 0.13 for the second.

E42T and E42Q are within error of each other in abundance fitness: 0.066 ± 0.17 for the first, -0.012 ± 0.17 for the second.

Compared with E42V, E42H is lower in abundance fitness: 0.066 ± 0.11 for the first, -0.394 ± 0.21 for the second.

E42P and E42I are within error of each other in abundance fitness: 0.052 ± 0.18 for the first, -0.261 ± 0.23 for the second.

E42D and E42F are within error of each other in abundance fitness: -0.182 ± 0.16 for the first, -0.315 ± 0.22 for the second.

E42G and E42Y are within error of each other in abundance fitness: -0.114 ± 0.11 for the first, -0.17 ± 0.27 for the second.

First: E42W
Second: E42K
The abundance fitness of the first is lower: -0.49 ± 0.14 for the first, 0.026 ± 0.18 for the second.

E42C and E42M are within error of each other in abundance fitness: -0.026 ± 0.21 for the first, -0.069 ± 0.15 for the second.

E42A and H49T are within error of each other in abundance fitness: -0.178 ± 0.13 for the first, -0.16 ± 0.14 for the second.

H49W and H49M are within error of each other in abundance fitness: -0.175 ± 0.15 for the first, -0.354 ± 0.16 for the second.

H49F and H49V are within error of each other in abundance fitness: -0.068 ± 0.19 for the first, -0.185 ± 0.099 for the second.

H49K and H49L are within error of each other in abundance fitness: -0.2 ± 0.18 for the first, -0.213 ± 0.13 for the second.

Going from H49C to H49G, the abundance fitness falls from 0.348 ± 0.19 to -0.086 ± 0.1.

H49P and H49Q are within error of each other in abundance fitness: -0.041 ± 0.12 for the first, -0.141 ± 0.2 for the second.

H49A and H49Y are within error of each other in abundance fitness: -0.281 ± 0.11 for the first, -0.169 ± 0.18 for the second.

H49I and H49N are within error of each other in abundance fitness: -0.109 ± 0.17 for the first, -0.381 ± 0.23 for the second.

H49R and H49E are within error of each other in abundance fitness: -0.044 ± 0.12 for the first, -0.247 ± 0.12 for the second.

H49S and H49D are within error of each other in abundance fitness: -0.202 ± 0.11 for the first, -0.241 ± 0.15 for the second.

W45E and W45R are within error of each other in abundance fitness: 0.083 ± 0.16 for the first, -0.162 ± 0.09 for the second.

W45Y and W45I are within error of each other in abundance fitness: -0.207 ± 0.18 for the first, 0.057 ± 0.19 for the second.

First: W45L
Second: W45M
The abundance fitness of the first is lower: -0.218 ± 0.097 for the first, 0.179 ± 0.15 for the second.

W45A and W45V are within error of each other in abundance fitness: 0.005 ± 0.13 for the first, 0.115 ± 0.11 for the second.

W45K and W45P are within error of each other in abundance fitness: -0.483 ± 0.27 for the first, -0.161 ± 0.22 for the second.

W45G and W45T are within error of each other in abundance fitness: 0.025 ± 0.085 for the first, 0.085 ± 0.16 for the second.

W45Q and W45H are within error of each other in abundance fitness: 0.109 ± 0.14 for the first, -0.119 ± 0.21 for the second.

W45N and W45C are within error of each other in abundance fitness: -0.051 ± 0.18 for the first, -0.101 ± 0.13 for the second.

Going from W45S to W45D, the abundance fitness falls from 0.098 ± 0.1 to -0.313 ± 0.2.

W45F and E51M are within error of each other in abundance fitness: -0.159 ± 0.15 for the first, -0.03 ± 0.15 for the second.

E51W and E51I are within error of each other in abundance fitness: -0.338 ± 0.11 for the first, -0.331 ± 0.22 for the second.

Work on E51C yielded an abundance fitness of -0.227 ± 0.13.
